The target in assay [1] is T1, NY-ESO-1 peptide on HLA-A*02:01 (human).
T1 peptide: SLLMWITQC
Description: multimer staining.

The target of assay [2] is T1, NY-ESO-1 peptide on HLA-A*02:01. Description: activation reporter or marker. The procedure:
NY7 variant TCRs isolated by the work flow above were then functionally tested for potency and specificity. TCRs were expressed in Jurkat cells using a lentivirus vector, and TCR-expressing Jurkat cells were co-cultured with T2 cells and a varying dose of the NY-ESO-1 peptide. Activation was measured by luminescence using an NFAT-Luciferase reporter.

Substitutions are numbered along the chain they refer to.

B1: NY7JSY (TCR, V domains shown)
Valpha: QKEVEQNSGPLSVPEGAIASLNCTYSDRGSQSFFWYRQYSGKSPELIMFIYSNGDKEDGRFTAQLNKASQYVSLLIRDSQPSDSATYLCAVMRAGGFKTIFGAGTRLFVKA
Vbeta: DSGVTQTPKHLITATGQRVTLRCSPRSGDLSVYWYQQSLDQGLQFLIQYYNGEERAKGNILERFSAQQFPDLHSELNLSSLELGDSALYFCASSVVDGEQYFGPGTRLTVT
Regarding B1, the binding result in assay [1] is reported as “recognises”.

B2: NY7 variant, Table A TCR ID 5 (TCR, V domains shown)
Valpha: B1 Valpha with G29W
Vbeta: B1 Vbeta
In the case of B2, the binding result in assay [2] is given as “recognises”.

The record behind these values is patent US20230287080A1 (published 2023).
